Target: T1, CD20+ Daudi lymphoma cells (Homo sapiens, UniProt P11836)
T1 construct: co-incubated with CD20+ Daudi lymphoma cells for 30 minutes at room temperature; endogenous in cells; host or cells: Daudi lymphoma cells
T1 sequence (P11836 1-297): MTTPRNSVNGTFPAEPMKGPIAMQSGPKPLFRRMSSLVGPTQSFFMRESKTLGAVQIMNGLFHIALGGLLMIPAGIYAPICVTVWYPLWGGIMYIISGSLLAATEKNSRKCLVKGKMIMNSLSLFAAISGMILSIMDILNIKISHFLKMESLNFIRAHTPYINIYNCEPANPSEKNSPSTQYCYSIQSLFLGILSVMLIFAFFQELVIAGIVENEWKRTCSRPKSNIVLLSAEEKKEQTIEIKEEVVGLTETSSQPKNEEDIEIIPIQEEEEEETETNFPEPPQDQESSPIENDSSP
Assay: Daudi cell CD20 blocking (subsequent PE anti-human CD20 staining)
Format: cell-based
Settings: co-incubated with CD20+ Daudi cells 30 minutes at room temperature
Experimental: […] show blocking of CD20-positive Daudi cells with isotype control (FIG. 5A), anti-CD20 antibody (FIG. 5B), ABRAXANE® (FIG. 5C), AR160 (FIG. 5D), NTP (FIG. 5E), rituximab-bound NTP (NTRit; FIG. 5F), or rituximab alone (FIG. 5G).
ABX, AR160, Non-toxic nanoparticle (NTP) and rituximab-bound NTP were prepared as described above or previously (see, e.g., PCT Pub. No. WO2014/055415, which is incorporated herein by reference in its entirety). The nanoparticles and unlabeled rituximab were co-incubated with CD20+ Daudi lymphoma cells for 30 minutes at room temperature. The cells were washed and subsequently stained with PE anti-human CD20. Isotype (FIG. 5A) and anti-CD20 (FIG. 5B) stained cells served as negative and positive controls, respectively.

Substance: rituximab: anti-CD20 antibody (Rituxan)
- blocking of subsequent binding of PE anti-human CD20: block subsequent binding of PE anti-human CD20

From patent US11311631B2, “Paclitaxel-albumin-binding agent compositions and methods for using and making the same” (Mayo Foundation for Medical Education and Research, priority 2016, dated 2022)
